From the supplement of paper PMC11246515
± gives the standard deviation of the averaged measurements.

Assay: total protein half-life in vivo (active degradation + dilution); higher = more stable protein
[1] = E. coli NCM3722 delta-clpP delta-lon delta-hslV, growth: N-lim chemostat, doubling time 6 h
[2] = E. coli NCM3722 delta-clpP, growth: N-lim chemostat, doubling time 6 h
[3] = E. coli NCM3722 delta-hslV, growth: N-lim chemostat, doubling time 6 h
[4] = E. coli NCM3722 delta-lon, growth: N-lim chemostat, doubling time 6 h
[5] = E. coli NCM3722 delta-smpB, growth: N-lim chemostat, doubling time 6 h
[6] = wild type E. coli NCM3722, growth: C-lim chemostat, doubling time 3 h
[7] = wild type E. coli NCM3722, growth: C-lim chemostat, doubling time 6 h
[8] = wild type E. coli NCM3722, growth: C-lim chemostat, doubling time 12 h
[9] = wild type E. coli NCM3722, growth: N-lim chemostat, doubling time 6 h
[10] = wild type E. coli NCM3722, growth: N-lim chemostat, doubling time 12 h
[11] = wild type E. coli NCM3722, growth: P-lim chemostat, doubling time 6 h
[12] = wild type E. coli NCM3722, growth: P-lim chemostat, doubling time 12 h

Sequence	total protein half-life in vivo [1] [h]	total protein half-life in vivo [2] [h]	total protein half-life in vivo [3] [h]	total protein half-life in vivo [4] [h]	total protein half-life in vivo [5] [h]	total protein half-life in vivo [6] [h]	total protein half-life in vivo [7] [h]	total protein half-life in vivo [8] [h]	total protein half-life in vivo [9] [h]	total protein half-life in vivo [10] [h]	total protein half-life in vivo [11] [h]	total protein half-life in vivo [12] [h]
MVTINNARKILQRVDTLPLYLHAYAFHLNMRLERVLPADLLDIASENNLRGVKIHVLDGERFSLGNMDDKELSAFGDKARRLNLDIHIETSASDKASIDEAVAIALKTGASSVRFYPRYEGNLRDVLSIIANDIAYVRETYQDSGLTFTIEQHEDLKSHELVSLVKESEMESLSLLFDFANMINANEHPIDALKTMAPHITQVHIKDALIVKEPGGLGHKACISGQGDMPFKALLTHLICLGDDEPQVTAYGLEEEVDYYAPAFRFEDEDDNPWIPYRQMSETPLPENHLLDARLRKEKEDAINQINHVRNVLQQIKQEANHLLNH	4.45 ± 0.4	2.09 ± 0.14	2.28 ± 0.57	3.21	1.68 ± 0.29	1.99 ± 0.052	2.9	4.36 ± 0.28	2.77	3.27 ± 0.036	2.88	4.74 ± 0.53
MELRHLRYFVAVAQALNFTRAAEKLHTSQPSLSSQIRDLENCVGVPLLVRDKRKVALTAAGECFLQDALAILEQAENAKLRARKIVQEDRQLTIGFVPSAEVNLLPKVLPMFRLRQPDTLIELVSLITTQQEEKIRRGELDVGLMRHPVYSPEIDYLELFDEPLVVVLPVDHPLAHEKEITAAQLDGVNFVSTDPVYSGSLAPIVKAWFAQENSQPNIVQVATNILVTMNLVGMGLGVTLIPGYMNNFNTGQVVFRPIAGNVPSIALLMAWKKGEMKPALRDFIAIVQERLASVTA	5.58 ± 0.39	–	–	–	–	0.275	–	–	–	–	–	–
MVTFHTNHGDIVIKTFDDKAPETVKNFLDYCREGFYNNTIFHRVINGFMIQGGGFEPGMKQKATKEPIKNEANNGLKNTRGTLAMARTQAPHSATAQFFINVVDNDFLNFSGESLQGWGYCVFAEVVDGMDVVDKIKGVATGRSGMHQDVPKEDVIIESVTVSE	4.83 ± 0.65	4.38	4.92 ± 0.92	4.83 ± 0.27	4.11 ± 0.046	3.3 ± 0.97	6.03 ± 0.56	9.92 ± 0.88	4.507 ± 0.039	7.49 ± 1.2	–	11.1 ± 0.3
MEFAFYICGLIAILATLRVITHTNPVHALLYLIISLLAISGVFFSLGAYFAGALEIIVYAGAIMVLFVFVVMMLNLGGSEIEQERQWLKPQVWIGPAILSAIMLVVIVYAILGVNDQGIDGTPISAKAVGITLFGPYVLAVELASMLLLAGLVVAFHVGREERAGEVLSNRKDDSAKRKTEEHA [P0AFE0]	–	–	4.21	–	6.02	–	6.7	–	6.07	11.5	6.02	13.8 ± 2.9
MIELVIVSRLLEYPDAALWQHQQEMFEAIAASKNLPKEDAHALGIFLRDLTTMDPLDAQAQYSELFDRGRATSLLLFEHVHGESRDRGQAMVDLLAQYEQHGLQLNSRELPDHLPLYLEYLAQLPQSEAVEGLKDIAPILALLSARLQQRESRYAVLFDLLLKLANTAIDSDKVAEKIADEARDDTPQALDAVWEEEQVKFFADKGCGDSAITAHQRRFAGAVAPQYLNITTGGQH [P0AF26]	3.83 ± 0.37	–	0.814	2.04 ± 0.028	–	–	–	–	–	–	–	–
MCTTCGCGEGNLYIEGDEHNPHSAFRSAPFAPAARPKMKITGIKAPEFTPSQTEEGDLHYGHGEAGTHAPGMSQRRMLEVEIDVLDKNNRLAERNRARFAARKQLVLNLVSSPGSGKTTLLTETLMRLKDSVPCAVIEGDQQTVNDAARIRATGTPAIQVNTGKGCHLDAQMIADAAPRLPLDDNGILFIENVGNLVCPASFDLGEKHKVAVLSVTEGEDKPLKYPHMFAAASLMLLNKVDLLPYLNFDVEKCIACAREVNPEIEIILISATSGEGMDQWLNWLETQRCA [P0AAN3]	4.03 ± 0.57	3.15	2.72 ± 0.035	3.48 ± 0.13	3.079 ± 0.0096	2.29 ± 0.11	4.19 ± 0.074	6.66 ± 0.1	3.14 ± 0.63	3.83 ± 0.63	3.69 ± 0.052	7.22 ± 0.56
MNTFSQVWVFSDTPSRLPELMNGAQALANQINTFVLNDADGAQAIQLGANHVWKLNGKPDDRMIEDYAGVMADTIRQHGADGLVLLPNTRRGKLLAAKLGYRLKAAVSNDASTVSVQDGKATVKHMVYGGLAIGEERIATPYAVLTISSGTFDAAQPDASRTGETHTVEWQAPAVAITRTATQARQSNSVDLDKARLVVSVGRGIGSKENIALAEQLCKAIGAELACSRPVAENEKWMEHERYVGISNLMLKPELYLAVGISGQIQHMVGANASQTIFAINKDKNAPIFQYADYGIVGDAVKILPALTAALAR	–	–	–	–	–	2.87 ± 0.035	5.9	8.89 ± 0.4	–	–	–	–
MPEVQTDHPETAELSKPQLRMVDLNLLTVFDAVMQEQNITRAAHVLGMSQPAVSNAVARLKVMFNDELFVRYGRGIQPTARAFQLFGSVRQALQLVQNELPGSGFEPASSERVFHLCVCSPLDSILTSQIYNHIEQIAPNIHVMFKSSLNQNTEHQLRYQETEFVISYEDFHRPEFTSVPLFKDEMVLVASKNHPTIKGPLLKHDVYNEQHAAVSLDRFASFSQPWYDTVDKQASIAYQGMAMMSVLSVVSQTHLVAIAPRWLAEEFAESLELQVLPLPLKQNSRTCYLSWHEAAGRDKGHQWMEEQLVSICKR	5.69 ± 0.67	1.07	–	–	–	–	–	–	–	–	–	–
MCGRFAQSQTREDYLALLAEDIERDIPYDPEPIGRYNVAPGTKVLLLSERDEHLHLDPVFWGYAPGWWDKPPLINARVETAATSRMFKPLWQHGRAICFADGWFEWKKEGDKKQPFFIYRADGQPIFMAAIGSTPFERGDEAEGFLIVTAAADQGLVDIHDRRPLVLSPEAAREWMRQEISGKEASEIAASGCVPANQFSWHPVSRAVGNVKNQGAELIQPV	4.83 ± 0.49	4.014 ± 0.026	4.54	4.55 ± 0.27	3.52 ± 0.22	–	5.39 ± 0.18	9.42 ± 0.51	3.45 ± 0.065	–	5.07 ± 0.74	9.67 ± 1.4
MRVNNGLTPQELEAYGISDVHDIVYNPSYDLLYQEELDPSLTGYERGVLTNLGAVAVDTGIFTGRSPKDKYIVRDDTTRDTFWWADKGKGKNDNKPLSPETWQHLKGLVTRQLSGKRLFVVDAFCGANPDTRLSVRFITEVAWQAHFVKNMFIRPSDEELAGFKPDFIVMNGAKCTNPQWKEQGLNSENFVAFNLTERMQLIGGTWYGGEMKKGMFSMMNYLLPLKGIASMHCSANVGEKGDVAVFFGLSGTGKTTLSTDPKRRLIGDDEHGWDDDGVFNFEGGCYAKTIKLSKEAEPEIYNAIRRDALLENVTVREDGTIDFDDGSKTENTRVSYPIYHIDNIVKPVSKAGHATKVIFLTADAFGVLPPVSRLTADQTQYHFLSGFTAKLAGTERGITEPTPTFSACFGAAFLSLHPTQYAEVLVKRMQAAGAQAYLVNTGWNGTGKRISIKDTRAIIDAILNGSLDNAETFTLPMFNLAIPTELPGVDTKILDPRNTYASPEQWQEKAETLAKLFIDNFDKYTDTPAGAALVAAGPKL	4.17 ± 0.081	3.55 ± 0.13	3.29 ± 0.037	4.19 ± 0.05	3.45 ± 0.21	3.53 ± 0.18	6.17 ± 0.42	10.5 ± 0.7	3.69 ± 0.2	5.13 ± 0.55	5.5 ± 0.58	10.7 ± 0.72
MKAKAILLASVLLVGCQSTGNVQQHAQSLSAAGQGEAAKFTSQARWMDDGTSIAPDGDLWAFIGDELKMGIPENDRIREQKQKYLRNKSYLHDVTLRAEPYMYWIAGQVKKRNMPMELVLLPIVESAFDPHATSGANAAGIWQIIPSTGRNYGLKQTRNYDARRDVVASTTAALNMMQRLNKMFDGDWLLTVAAYNSGEGRVMKAIKTNKARGKSTDFWSLPLPQETKQYVPKMLALSDILKNSKRYGVRLPTTDESRALARVHLSSPVEMAKVADMAGISVSKLKTFNAGVKGSTLGASGPQYVMVPKKHADQLRESLASGEIAAVQSTLVADNTPLNSRVYTVRSGDTLSSIASRLGVSTKDLQQWNKLRGSKLKPGQSLTIGAGSSAQRLANNSDSITYRVRKGDSLSSIAKRHGVNIKDVMRWNSDTANLQPGDKLTLFVKNNNMPDS [P0AEZ7]	3.87 ± 0.74	–	–	–	–	–	–	–	–	–	–	–
MQGTKIRLLAGGLLMMATAGYVQADALQPDPAWQQGTLSNGLQWQVLTTPQRPSDRVEIRLLVNTGSLAESTQQSGYSHAIPRIALTQSGGLDAAQARSLWQQGIDPKRPMPPVIVSYDTTLFNLSLPNNRNDLLKEALSYLANATGKLTITPETINHALQSQDMVATWPADTKEGWWRYRLKGSTLLGHDPADPLKQPVEAEKIKDFYQKWYTPDAMTLLVVGNVDARSVVDQINKTFGELKGKRETPAPVPTLSPLRAEAVSIMTDAVRQDRLSIMWDTPWQPIRESAALLRYWRADLAREALFWHVQQALSASNSKDIGLGFDCRVLYLRAQCAINIESPNDKLNSNLNLVARELAKVRDKGLPEEEFNALVAQKKLELQKLFAAYARADTDILMGQRMRSLQNQVVDIAPEQYQKLRQDFLNSLTVEMLNQDLRQQLSNDMALILLQPKGEPEFNMKALQAVWDQIMAPSTAAATTSVATDDVHPEVTDIPPAQ	5.67 ± 0.23	6.56 ± 1.4	6.33 ± 0.55	–	6.16 ± 0.15	3.02 ± 0.35	6.42 ± 0.41	9.83 ± 0.8	6.08 ± 0.24	12.55 ± 0.063	6.3 ± 0.32	14.2 ± 0.33
MHVFDNNGIELKAECSIGEEDGVYGLILESWGPGDRNKDYNIALDYIIERLVDSGVSQVVVYLASSSVRKHMHSLDERKIHPGEYFTLIGNSPRDIRLKMCGYQAYFSRTGRKEIPSGNRTKRILINVPGIYSDSFWASIIRGELSELSQPTDDESLLNMRVSKLIKKTLSQPEGSRKPVEVERLQKVYVRDPMVKAWILQQSKGICENCGKNAPFYLNDGNPYLEVHHVIPLSSGGADTTDNCVALCPNCHRELHYSKNAKELIEMLYVNINRLQK	5.51	–	4.2	5.87	4.87	–	–	–	4.8 ± 0.71	8.5 ± 1.1	–	10.2
MVELKEPLATLWRGKDAFAEVKKLNGEVFRELETRRTLRFELSGKSYFLKWHKGTTLKEIIKNLLSLRMPVLGADREWHAIHRLSDVGVDTMKGIGFGEKGLNPLTRASFIITEDLTPTISLEDYCADWAVNPPDIRVKRMLIARVATMVRKMHTAGINHRDCYICHFLLHLPFTGREDELKISVIDLHRAQIRAKVPRRWRDKDLIGLYFSSMNIGLTQRDIWRFMKVYFGMPLRKILSLEQNLLNMASVKAERIKERTQRKGL	6.12 ± 0.57	6.03 ± 0.16	6.41 ± 0.56	5.58 ± 0.54	5.92 ± 0.2	3.02 ± 0.17	6.68 ± 0.36	11.5 ± 0.34	5.76 ± 0.48	11.4 ± 1.2	5.94 ± 0.41	12 ± 0.44
MNAYELQALRHIFAMTIDECATWIAQTGDSESWRQWENGKCAIPDRVVEQLLAMRQQRKKHLHAIIEKINNRIGNNTMRFFPDLTAFQRVYPDGNFIDWKIYQSVAAELYAHDLERLC	4.85	–	–	–	–	2.05	3.14 ± 0.49	5.24 ± 0.46	–	–	–	–
MLRIADKTFDSHLFTGTGKFASSQLMVEAIRASGSQLVTLAMKRVDLRQHNDAILEPLIAAGVTLLPNTSGAKTAEEAIFAAHLAREALGTNWLKLEIHPDARWLLPDPIETLKAAETLVQQGFVVLPYCGADPVLCKRLEEVGCAAVMPLGAPIGSNQGLETRAMLEIIIQQATVPVVVDAGIGVPSHAAQALEMGADAVLVNTAIAVADDPVNMAKAFRLAVEAGLLARQSGPGSRSYFAHATSPLTGFLEASA	2.21 ± 0.21	1.09 ± 0.22	0.8075 ± 0.0064	1.093 ± 0.0074	0.844 ± 0.015	1.59 ± 0.079	1.61 ± 0.17	1.81 ± 0.88	0.928 ± 0.09	1.067 ± 0.0049	2.01 ± 0.17	3.07 ± 0.59
